{
  "source": "patent US8333970B2",
  "about": "“Methods of monitoring the efficacy of anti-CD40 antibodies in treating a subject having an inflammatory or autoimmune disease” (Novartis AG, priority 2005, dated 2012)",
  "key": {"soluble CD40": {"target": "soluble CD40 (Homo sapiens, UniProt P25942)", "sequence (P25942 21-193 limits assumed)": "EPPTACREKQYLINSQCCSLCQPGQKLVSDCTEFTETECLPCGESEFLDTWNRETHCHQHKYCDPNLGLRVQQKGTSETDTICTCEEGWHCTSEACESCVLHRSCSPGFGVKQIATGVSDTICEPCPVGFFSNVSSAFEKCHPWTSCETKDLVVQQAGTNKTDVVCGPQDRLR", "test": "ELISA-type assay, binding to soluble CD40", "conditions": "ELISA-type assays", "description": "(§1) 2, 2000, and PCT International Application No. PCT/US01/30857, also titled “Human Anti-CD40 Antibodies,” filed Oct. 2, 2001, both of which are herein incorporated by reference in their entirety."}, "normal human B cells": {"tested_on": "normal human B cells", "test": "Western blot of phosphorylated signaling proteins in sCD40L-stimulated B cells", "format": "cell-based", "conditions": "1 μg/ml sCD40L, 20 minutes", "procedure": "In these experiments, 1.0×10^6 normal human B cells from healthy donors (percent purity between 85-95%) were stimulated with 1 μg/ml sCD40L (Alexis Corporation, Bingham, Nottinghamshire, UK). […] Cells were collected at 0 and 20 minutes. Phosphorylated IKKα (Ser180) and IKKβ (Ser 181) and total IKKβ controls were detected in cell lysates by Western blot.\nIn these experiments, 1.0×10^6 normal human B cells from healthy donors (percent purity between 85-95%) were serum starved in 1% FBS-containing media and stimulated with 1 μg/ml sCD40L (Alexis Corporation, Bingham, Nottinghamshire, UK). […] Cells were collected at 0 and 20 minutes. Phospho-IKKα, phospho-IKKβ, total IKKβ, phospho-ERK, total ERK, phospho-AKT, total AKT, phospho-p38, and total p38 were detected in cell lysates by Western blot.\nIn these experiments, 1.0×10^6 normal human B cells from healthy donors (percent purity between 85-95%) were serum starved in 1% FBS-containing media and stimulated with 1 μg/ml sCD40L (Alexis Corporation, Bingham, Nottinghamshire, UK). […] Cells were collected at 0 and 20 minutes. Phospho-ERK, phospho-AKT, total AKT, phospho-IKKα/β, and […] were detected in cell lysates by Western blot."}, "cell-surface CD40": {"target": "cell-surface CD40 (Homo sapiens, UniProt P25942)", "sequence (P25942 21-277)": "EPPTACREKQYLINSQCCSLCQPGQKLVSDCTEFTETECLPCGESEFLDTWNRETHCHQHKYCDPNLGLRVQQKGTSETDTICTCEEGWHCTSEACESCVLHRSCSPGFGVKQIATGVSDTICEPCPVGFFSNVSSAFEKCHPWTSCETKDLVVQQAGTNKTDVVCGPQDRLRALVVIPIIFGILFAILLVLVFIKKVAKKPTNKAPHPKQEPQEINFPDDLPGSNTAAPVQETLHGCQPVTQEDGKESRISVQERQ", "test": "Flow cytometric (FACS) assay of CD40 binding and CD40-ligand blocking", "description": "as §1"}},
  "note": "Entries after “also recorded” stand apart in the source; their conditions may differ.",
  "data": [
    {"substance": "CHIR-12.12: fully human anti-CD40 monoclonal antibody of the IgG1 isotype, hybridoma 153.8E2.D10.D6.12.12, ATCC PTA-5543, SEQ ID NO:2 and 4", "values": [
      {"measurement": "binding to soluble CD40", "setting": "soluble CD40", "result": "bind soluble CD40"},
      {"measurement": "phosphorylation of IKKα (Ser180) and IKKβ (Ser 181)", "setting": "normal human B cells; 10 μg/ml antibody", "result": "abrogated this response to sCD40L stimulation"},
      {"measurement": "IKKα/β, ERK, AKT and p38 phosphorylation", "setting": "normal human B cells; serum starved, 1 and 10 μg/ml antibody", "result": "inhibited phosphorylation; also recorded: abrogated the effects of sCD40L stimulation on these signaling pathways"},
      {"measurement": "phospho-ERK, phospho-AKT, phospho-IKKα/β, compared with PI3K/AKT and MEK inhibitors", "setting": "normal human B cells; serum starved", "result": "abrogated the phosphorylation of all of these signal transduction molecules"},
      {"measurement": "specific binding to human CD40", "setting": "cell-surface CD40; FACS analysis", "result": "bind specifically to human CD40"},
      {"measurement": "displacement of CD40-ligand pre-bound to cell surface CD40", "setting": "cell-surface CD40; flow cytometric assays", "result": "displace the pre-bound CD40-ligand; also recorded: can compete off CD40-ligand pre-bound to cell surface CD40"},
      {"measurement": "prevention of CD40-ligand binding to cell-surface CD40", "setting": "cell-surface CD40; flow cytometric assays", "result": "prevent the binding of CD40-ligand to cell-surface CD40; also recorded: can prevent CD40-ligand binding"}
    ]}
  ]
}
